Here are results for three molecules from publication PMC10484793.

Data set [1] deals with T1, C17orf80 (Homo sapiens, UniProt Q9BSJ5 1-609). As to the kind of experiment: EMSA. A general note: A gel shift assay detects complexes by their altered migration in electrophoresis.
The target in data set [2] is T1, C17orf80. Nature of the data set: EMSA. The source holds these as a separate data set.

T1 sequence (Q9BSJ5 whole entry): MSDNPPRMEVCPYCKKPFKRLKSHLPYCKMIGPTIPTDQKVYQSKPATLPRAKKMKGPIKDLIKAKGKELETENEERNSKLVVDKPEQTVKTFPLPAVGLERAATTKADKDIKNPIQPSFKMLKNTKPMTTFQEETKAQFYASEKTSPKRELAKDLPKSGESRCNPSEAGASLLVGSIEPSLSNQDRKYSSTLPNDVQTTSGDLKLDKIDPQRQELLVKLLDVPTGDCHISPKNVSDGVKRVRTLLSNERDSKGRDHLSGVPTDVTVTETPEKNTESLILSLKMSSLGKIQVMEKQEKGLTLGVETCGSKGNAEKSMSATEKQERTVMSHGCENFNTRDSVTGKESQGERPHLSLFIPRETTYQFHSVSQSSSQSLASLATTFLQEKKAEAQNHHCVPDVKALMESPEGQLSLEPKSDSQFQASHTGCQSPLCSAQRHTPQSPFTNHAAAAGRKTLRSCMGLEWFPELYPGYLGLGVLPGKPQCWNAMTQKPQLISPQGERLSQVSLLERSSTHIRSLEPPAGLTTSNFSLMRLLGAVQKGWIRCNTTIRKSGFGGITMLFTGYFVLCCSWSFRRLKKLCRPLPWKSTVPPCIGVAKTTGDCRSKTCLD

B1: mito dsDNA (dsDNA)
DNA 1: TACTCCTCAATTACCCACATAGGATGAATAATAGCAGTTCTACCGTACAA
DNA 2: TTGTACGGTAGAACTGCTATTATTCATCCTATGTGGGTAATTGAGGAGTA
As for B1, the affinity with C17orf80 [1], expressed as Kd, was 46 ± 7 nM.
For the molecule TACTCCTCAATTACCCACATAGGATGAATAATAGCAGTTCTACCGTACAA (ssDNA) [mito ssDNA], in the data set with C17orf80 [2], the binding result is “no binding”.

B2: nuc dsDNA (dsDNA)
DNA 1: TTTATTTCTGAGACGGGGTCTTGTGTTGCCCAGGCTGGAGTGTAATGGCA
DNA 2: TGCCATTACACTCCAGCCTGGGCAACACAAGACCCCGTCTCAGAAATAAA
B2: in the data set with C17orf80 [1], the Kd (commonly the concentration at which binding is half-saturated) was determined as 49 ± 3 nM.
